Source: US6110695A, “Modulating the interaction of the chemokine, B Lymphocyte Hemoattractant, and its Receptor, BLR1” (The Regents of the University of California, priority 1997, dated 2000)

Legend:
B cells = assay: Transwell chemotaxis of spleen B cells; format: cell-based, mouse
Protocol: (§1) FIGS. 1(a)-(g). Chemotactic activity of BLC on leukocyte subtypes. Results are expressed as the percentage of input cells of each subtype migrating to the lower chamber of a Transwell filter. FIG. 1a show migration of B cells; FIG. 1b, CD4+T cells; FIG. 1c, CD8+T cells; FIG. 1d; granulocytes; and FIG. 1e, monocytes/macrophages to BLC. Positive controls are SDF1a (FIGS. 1a, b, c, e) and IL8 (FIG. 1d). […] BLC was added to the upper or lower chamber of the apparatus as indicated. […] Data points with error bars represent the mean 1 s.d. for triplicates; individual data points are shown for duplicates. Each experiment was performed a minimum of two times.
(§2) To test this possibility, chemotaxis assays were performed with lymphocytes from mouse spleen and baculovirus-expressed BLC estimated to bc greater than 95% pure by silver staining. […] An alternative possibility is that high potency is not rcquired for a chemokine that is expressed constitutively within lymphoid tissues.
(§3) Chemotaxis. Lymphocytes and macrophages were obtained from spleens of C57BL/6 mice. For macrophage chemotaxis, B cells were depleted by passage over a MACS column (Milteny Biotec, Auburn, Calif.) after incubation with biotinylated anti-B220 antibodies and streptavidin-coated magnetic beads. Granulocytes were obtained from mouse bone marrow suspensions. Mouse BLR1 transfected Jurkat cells were obtained by transfection with pREP4 containing the mouse BLR1 coding region (16), isolated by RT-PCR from mouse spleen RNA, and an amino terminal prolactin leader sequence and FLAG epitope (23). Positive clones were identified using the anti-FLAG antibody M1 (Kodak). Chemotaxis assays were performed as previously described (15) and subsets of migrating cells were identified by flow cytometry using antibodies specific for B220, CD4, CD8 (Pharmingen, San Diego, Calif.) and Mac-1 (Caltag, South San Francisco, Calif.). Granulocytes were identified by their characteristic large side scatter profile. In some experiments, cells were preincubated with 100 ng/ml pertussis toxin (List Biol. Labs, Campbell, Calif.) for 2 hrs at 37° C. IL-8 (R&D Systems, Minneapolis, Minn.) and synthetic human SDF1 a (N33A) synthesized by native chemical ligation (Gryphon Sciences, South San Francisco) were used as positive controls. SDF1a (N33A) has identical activity to native human and mouse SDF1a (24, 25).

[1] = tested on: spleen monocytes/macrophages; assay: Transwell chemotaxis of spleen monocytes/macrophages; format: cell-based, mouse; details: FIG. 1e
Protocol: as §1, §2
(§4) Chemotaxis. Lymphocytes and macrophages were obtained from spleens of C57BL/6 mice. For macrophage chemotaxis, B cells were depleted by passage over a MACS column (Milteny Biotec, Auburn, Calif.) after incubation with biotinylated anti-B220 antibodies and streptavidin-coated magnetic beads. Granulocytes were obtained from mouse bone marrow suspensions. […]

BLR1 [2] = assay: Calcium flux in BLR1 transfected 300-19 pre-B cells; format: cell-based, mouse; details: FIG. 2e
Description: (§5) FIG. 2(a)-(f). BLR1-mediated calcium mobilization and chemotaxis in response to BLC. HEK 293 cells, stably transfected with the indicated chemokine receptors (FIGS. 2a-d), were loaded with the calcium probe Indo-1 and assayed by spectrofluorimetry for changes in intracellular calcium in response to BLC. FIG. 2a, Calcium flux as a function of BLC concentration (nM). FIG. 2b, Specificity of the response of BLR1 to BLC. FIG. 2c, Lack of response to BLC in CCR1-transfected cells. FIG. 2d, Lack of response to BLC in CXCR2-transfected cells. FIG. 2e, Percentage of maximal calcium flux as a function of BLC concentration in BLR1-transfected 300-19 cells. FIG. 2f, Chemotactic response of BLR1-transfected Jurkat cells to BLC. Results of chemotaxis are expressed as in FIG. 1.
(§6) We therefore tested whether BLC could signal through BLR1. […] Using BLR1 transfected 300-19 pre-B cells a more complete dose response curve was obtained showing that the response to BLC is saturable (FIG. 2e). […] We next tested the ability of BLC to stimulate chemotaxis through BLR1.
(§7) Calcium fluorimetry on transfected 293 and 300-19 cells. Native mouse BLR1 was subcloned into pBK-CMV (Stratagene) and used to transfect HEK 293 cells and 300-19 pre-B cells. […] Intracellular calcium concentrations were calculated using the Hitachi 4500 Intracellular Cation Measurement program.

Control transfectants = assay: Calcium flux in control transfectants of 293 and 300-19 cells; format: cell-based; details: control transfectants of either cell line (293, 300-19)
Protocol: as §6
(§8) Calcium fluorimetry on transfected 293 and 300-19 cells. Native mouse BLR1 was subcloned into pBK-CMV (Stratagene) and used to transfect HEK 293 cells and 300-19 pre-B cells. G418-resistant clones were tested for BLR1 expression using an affinity purified rabbit anti-mouse antiserum that is specific for the BLR1 amino terminus. HEK293 cells expressing CCR1, CCR2 and CXCR2 were from the Cardiovascular Research Institute, UCSF. Ca2+-mobilization studies were performed as described (26) using a Hitachi 4500 spectrometer. Intracellular calcium concentrations were calculated using the Hitachi 4500 Intracellular Cation Measurement program.

granulocytes = assay: Transwell chemotaxis of bone marrow granulocytes; format: cell-based, mouse; details: FIG. 1d
Protocol: as §1, §2, §4

CXCR2 = assay: Calcium flux in 293 cells transfected with CXCR2; format: cell-based; details: 293 cells transfected with CXCR2, FIG. 2d
Description: as §5, §6, §7

mouse BLR1 = assay: Calcium flux in HEK 293 cells stably transfected with mouse BLR1; format: cell-based; details: HEK 293 cells stably transfected with mouse BLR1, FIG. 2a, b
Description: as §5, §6, §7

CCR2 = assay: Calcium flux in 293 cells transfected with CCR2; format: cell-based
Protocol: as §6, §8

BLR1- negative cells = assay: Chemotaxis of BLR1-negative Jurkat cells; format: cell-based
Protocol: as §6
as §3, with “In some experiments, cells were preincubated with 100 ng/ml pertussis toxin (List Biol. Labs, Campbell, Calif.) for 2 hrs at 37° C. IL-8 (R&D Systems, Minneapolis, Minn.) and synthetic human SDF1 a (N33A) synthesized by native chemical ligation (Gryphon Sciences, South San Francisco) were used as positive controls. SDF1a (N33A) has identical activity to native human and mouse SDF1a (24, 25).” left out

CD4 and CD8 T cells = assay: Transwell chemotaxis of spleen CD4 and CD8 T cells; format: cell-based; details: mouse spleen lymphocytes, FIG. 1b, c
Protocol: as §1, §2, §4

CCR1 = assay: Calcium flux in 293 cells transfected with CCR1; format: cell-based; details: 293 cells transfected with CCR1, FIG. 2c
Description: as §5, §6, §7

BLR1 [3] = assay: Chemotaxis of BLR1 transfected Jurkat T cells; format: cell-based, mouse; details: Jurkat T cells transfected with BLR1
Description: as §5, §6, §4

## pertussis toxin [reference compound]
B cells; preincubated with 100 ng/ml pertussis toxin for 2 hrs at 37° C., FIG. 1g
  BLC-induced migration of pertussis toxin pretreated B cells: failed to migrate

B1: BLC: novel CXC chemokine; baculovirus-expressed mouse BLC (SEQ ID NO:2), mature protein starting at isoleucine 22 (protein)
chain: MRLSTATLLLLLASCLSPGHGILEAHYTNLKCRCSGVISTVVGLNIIDRIQVTPPGNGCPKTEVVIWTKMKKVICVNPRAKWLQRLLRHVQSKSLSSTPQAPVSKRRAA
[1]
  chemotactic activity for spleen monocytes/macrophages: weak but reproducible chemotactic activity
B cells; baculovirus expressed protein, compared with most chemokines
  potency as a B cell attractant: potency less than that of most chemokines
B cells; cells incubated with BLC in the absence of a gradient, FIG. 1f
  migration of cells in the absence of a gradient: failed to migrate
B cells; mouse spleen lymphocytes, FIG. 1a
  chemotactic response in B cells: strong chemotactic response
BLR1 [2]
  calcium flux dose response: saturable
Control transfectants
  calcium flux response: did not respond
granulocytes
  chemotactic activity towards granulocytes: no chemotactic activity
CXCR2
  calcium flux: failed to stimulate a calcium flux
Mouse BLR1
  calcium flux: dose dependent calcium flux
CCR2
  calcium flux: failed to stimulate a calcium flux
BLR1- negative cells
  chemotactic response: failed to respond
CD4 and CD8 T cells
  chemotactic activity towards CD4 and CD8 T cells: limited activity
CCR1
  calcium flux: failed to stimulate a calcium flux
BLR1 [3]
  chemotactic response: showed a chemotactic response
